B1: Flagellar protein FliT (Salmonella typhimurium), P0A1N2 (parent)
chain: MTSTVEFINRWQRIALLSQSLLELAQRGEWDLLLQQEVSYLQSIETVMEKQTPPGITRSIQDMVAGYIKQTLDNEQLLKGLLQQRLDELSSLIGQSTRQKSLNNAYGRLSGMLLVPDAPGAS
partner: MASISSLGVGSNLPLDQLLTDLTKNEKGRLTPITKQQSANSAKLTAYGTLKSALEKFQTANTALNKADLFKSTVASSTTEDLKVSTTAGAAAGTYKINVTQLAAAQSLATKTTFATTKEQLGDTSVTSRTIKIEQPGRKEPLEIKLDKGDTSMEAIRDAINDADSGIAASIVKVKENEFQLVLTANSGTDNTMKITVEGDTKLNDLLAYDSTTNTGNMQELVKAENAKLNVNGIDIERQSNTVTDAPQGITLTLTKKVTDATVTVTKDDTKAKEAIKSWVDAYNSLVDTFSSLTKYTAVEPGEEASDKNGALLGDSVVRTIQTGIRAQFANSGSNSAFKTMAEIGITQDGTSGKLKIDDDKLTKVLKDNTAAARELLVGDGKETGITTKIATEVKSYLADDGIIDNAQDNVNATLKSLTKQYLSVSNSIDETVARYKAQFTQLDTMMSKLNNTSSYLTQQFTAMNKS

Variants of: B1
Conditions: with flid_salty fliD

Row | Variant | effect of a mutation on the interaction
1 | MTSTVEFINRWQRIALLSQSLLELAQRGEWDLLLQQEVSYLQSIETVMEKQTPPGITRSIQDMVAGYIKQTLDNAQLLKGLLQQRLDELSSLIGQSTRQKSLNNAYGRLSGMLLVPDAPGAS [E75A] | decreasing interaction strength
2 | MTSTVEFINRWQRIALLSQSLLELAQRGEWDLLLQQEVSYLQSIETVMEKQTPPGITRSIQDMVAGYIKQTLDNEQLLAGLLQQRLDELSSLIGQSTRQKSLNNAYGRLSGMLLVPDAPGAS [K79A] | disrupting interaction strength
